Source: the supplement of paper PMC10567573

B1: NEUROD6 (parent)
chain: YHSPELTTPPGHGTLDNSKSMKPY
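Further: lentivirally expressed fusions sorted by FACS into six bins by GFP to DsRed ratio, PSI derived from sequencing read proportions per bin multiplied by bin number.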

Variants of: B1
Assay: protein stability index of a GFP-peptide fusion (GPS, HEK-293T) (PSI 1-6); higher = more stable
Settings: c terminus: a fixed tail appended
For YHSSELTTPPGHGTLDNSKSMKPY, the protein stability index was 2.44. With YHSTELTTPPGHGTLDNSKSMKPY the protein stability index was 2.08. In the case of YHSYELTTPPGHGTLDNSKSMKPY, the protein stability index is reported as 1.68. Variant YHSNELTTPPGHGTLDNSKSMKPY has a protein stability index of 2.46. Work on YHSKELTTPPGHGTLDNSKSMKPY yielded a protein stability index of 2.18. Variant YHSVELTTPPGHGTLDNSKSMKPY has a protein stability index of 2.11. For YHSQELTTPPGHGTLDNSKSMKPY, the protein stability index was 2.46. YHSGELTTPPGHGTLDNSKSMKPY gave a protein stability index of 2.02. In the case of YHSEELTTPPGHGTLDNSKSMKPY, the protein stability index is reported as 3.36. For YHSFELTTPPGHGTLDNSKSMKPY, the protein stability index was 2.21. In the case of YHSMELTTPPGHGTLDNSKSMKPY, the protein stability index is reported as 2.52. YHSIELTTPPGHGTLDNSKSMKPY showed a protein stability index of 2.23. For YHSRELTTPPGHGTLDNSKSMKPY, the protein stability index was 2.32. Variant YHSLELTTPPGHGTLDNSKSMKPY has a protein stability index of 1.95. Work on YHSAELTTPPGHGTLDNSKSMKPY yielded a protein stability index of 2.6. In the case of YHSDELTTPPGHGTLDNSKSMKPY, the protein stability index is reported as 2.97. YHSHELTTPPGHGTLDNSKSMKPY gave a protein stability index of 2.07. In the case of YHSWELTTPPGHGTLDNSKSMKPY, the protein stability index is reported as 2.82. YHSCELTTPPGHGTLDNSKSMKPY gave a protein stability index of 2.38. YHDPELTTPPGHGTLDNSKSMKPY showed a protein stability index of 2.82. YHRPELTTPPGHGTLDNSKSMKPY gave a protein stability index of 3.04. YHHPELTTPPGHGTLDNSKSMKPY gave a protein stability index of 2.44. In the case of YHKPELTTPPGHGTLDNSKSMKPY, the protein stability index is reported as 3.71. YHEPELTTPPGHGTLDNSKSMKPY showed a protein stability index of 3.81. Work on YHLPELTTPPGHGTLDNSKSMKPY yielded a protein stability index of 2.19. YHQPELTTPPGHGTLDNSKSMKPY showed a protein stability index of 3.12. YHNPELTTPPGHGTLDNSKSMKPY gave a protein stability index of 1.56. For YHGPELTTPPGHGTLDNSKSMKPY, the protein stability index was 3.46. For YHWPELTTPPGHGTLDNSKSMKPY, the protein stability index was 2.52. Variant YHVPELTTPPGHGTLDNSKSMKPY has a protein stability index of 3.42. Work on YHTPELTTPPGHGTLDNSKSMKPY yielded a protein stability index of 2.77. With YHYPELTTPPGHGTLDNSKSMKPY the protein stability index was 2.02. Variant YHCPELTTPPGHGTLDNSKSMKPY has a protein stability index of 2.33. In the case of YHMPELTTPPGHGTLDNSKSMKPY, the protein stability index is reported as 1.94. In the case of YHIPELTTPPGHGTLDNSKSMKPY, the protein stability index is reported as 2.89. Work on YHFPELTTPPGHGTLDNSKSMKPY yielded a protein stability index of 1.86. Work on YHAPELTTPPGHGTLDNSKSMKPY yielded a protein stability index of 2.15. For YFSPELTTPPGHGTLDNSKSMKPY, the protein stability index was 4.01. Variant YGSPELTTPPGHGTLDNSKSMKPY has a protein stability index of 4.41. In the case of YNSPELTTPPGHGTLDNSKSMKPY, the protein stability index is reported as 4.71. In the case of YCSPELTTPPGHGTLDNSKSMKPY, the protein stability index is reported as 3.23. With YLSPELTTPPGHGTLDNSKSMKPY the protein stability index was 3.17. Work on YPSPELTTPPGHGTLDNSKSMKPY yielded a protein stability index of 4.29. For YESPELTTPPGHGTLDNSKSMKPY, the protein stability index was 5.07. With YTSPELTTPPGHGTLDNSKSMKPY the protein stability index was 3.61. With YSSPELTTPPGHGTLDNSKSMKPY the protein stability index was 4.53. YISPELTTPPGHGTLDNSKSMKPY gave a protein stability index of 2.17. YMSPELTTPPGHGTLDNSKSMKPY showed a protein stability index of 4.18. In the case of YQSPELTTPPGHGTLDNSKSMKPY, the protein stability index is reported as 3.15. Work on YKSPELTTPPGHGTLDNSKSMKPY yielded a protein stability index of 4.69. Variant YASPELTTPPGHGTLDNSKSMKPY has a protein stability index of 3.41. With YYSPELTTPPGHGTLDNSKSMKPY the protein stability index was 4.04. Work on YVSPELTTPPGHGTLDNSKSMKPY yielded a protein stability index of 2.25. Work on YWSPELTTPPGHGTLDNSKSMKPY yielded a protein stability index of 3.91. For YRSPELTTPPGHGTLDNSKSMKPY, the protein stability index was 4.14. Variant YDSPELTTPPGHGTLDNSKSMKPY has a protein stability index of 4.75. Work on YHSPVLTTPPGHGTLDNSKSMKPY yielded a protein stability index of 2.14. With YHSPFLTTPPGHGTLDNSKSMKPY the protein stability index was 2.83. Variant YHSPCLTTPPGHGTLDNSKSMKPY has a protein stability index of 1.75. Variant YHSPSLTTPPGHGTLDNSKSMKPY has a protein stability index of 2.29. Variant YHSPGLTTPPGHGTLDNSKSMKPY has a protein stability index of 2.14. For YHSPNLTTPPGHGTLDNSKSMKPY, the protein stability index was 2.43. For YHSPYLTTPPGHGTLDNSKSMKPY, the protein stability index was 2.32. YHSPDLTTPPGHGTLDNSKSMKPY gave a protein stability index of 2.76. With YHSPTLTTPPGHGTLDNSKSMKPY the protein stability index was 2.28. Work on YHSPALTTPPGHGTLDNSKSMKPY yielded a protein stability index of 2.71. Variant YHSPMLTTPPGHGTLDNSKSMKPY has a protein stability index of 1.98. For YHSPILTTPPGHGTLDNSKSMKPY, the protein stability index was 2.25. In the case of YHSPKLTTPPGHGTLDNSKSMKPY, the protein stability index is reported as 2.14. For YHSPRLTTPPGHGTLDNSKSMKPY, the protein stability index was 2.66. In the case of YHSPQLTTPPGHGTLDNSKSMKPY, the protein stability index is reported as 2.34. With YHSPWLTTPPGHGTLDNSKSMKPY the protein stability index was 2.56. YHSPLLTTPPGHGTLDNSKSMKPY showed a protein stability index of 1.67. YHSPECTTPPGHGTLDNSKSMKPY gave a protein stability index of 2.81. With YHSPEATTPPGHGTLDNSKSMKPY the protein stability index was 2.58. In the case of SHSPELTTPPGHGTLDNSKSMKPY, the protein stability index is reported as 4.93. GHSPELTTPPGHGTLDNSKSMKPY gave a protein stability index of 4.91. Work on AHSPELTTPPGHGTLDNSKSMKPY yielded a protein stability index of 5.09. For LHSPELTTPPGHGTLDNSKSMKPY, the protein stability index was 4.96. HHSPELTTPPGHGTLDNSKSMKPY showed a protein stability index of 4.62. CHSPELTTPPGHGTLDNSKSMKPY showed a protein stability index of 4.53. KHSPELTTPPGHGTLDNSKSMKPY gave a protein stability index of 4.93. For MHSPELTTPPGHGTLDNSKSMKPY, the protein stability index was 4.74. For RHSPELTTPPGHGTLDNSKSMKPY, the protein stability index was 4.99. For DHSPELTTPPGHGTLDNSKSMKPY, the protein stability index was 5.05. With IHSPELTTPPGHGTLDNSKSMKPY the protein stability index was 4.77. Variant FHSPELTTPPGHGTLDNSKSMKPY has a protein stability index of 2.7. For THSPELTTPPGHGTLDNSKSMKPY, the protein stability index was 4.76. EHSPELTTPPGHGTLDNSKSMKPY gave a protein stability index of 5.28. Variant PHSPELTTPPGHGTLDNSKSMKPY has a protein stability index of 4.37. Work on WHSPELTTPPGHGTLDNSKSMKPY yielded a protein stability index of 4.53. NHSPELTTPPGHGTLDNSKSMKPY gave a protein stability index of 4.94. Work on QHSPELTTPPGHGTLDNSKSMKPY yielded a protein stability index of 5.06. In the case of VHSPELTTPPGHGTLDNSKSMKPY, the protein stability index is reported as 4.69.
